Measured values from US20200277392A1 (Hoffmann-La Roche, published 2020).

T1: GST TnC hu fn5 B-C fn6 B (human, biotinylated at the C-terminal Avi-tag)
T1 chain: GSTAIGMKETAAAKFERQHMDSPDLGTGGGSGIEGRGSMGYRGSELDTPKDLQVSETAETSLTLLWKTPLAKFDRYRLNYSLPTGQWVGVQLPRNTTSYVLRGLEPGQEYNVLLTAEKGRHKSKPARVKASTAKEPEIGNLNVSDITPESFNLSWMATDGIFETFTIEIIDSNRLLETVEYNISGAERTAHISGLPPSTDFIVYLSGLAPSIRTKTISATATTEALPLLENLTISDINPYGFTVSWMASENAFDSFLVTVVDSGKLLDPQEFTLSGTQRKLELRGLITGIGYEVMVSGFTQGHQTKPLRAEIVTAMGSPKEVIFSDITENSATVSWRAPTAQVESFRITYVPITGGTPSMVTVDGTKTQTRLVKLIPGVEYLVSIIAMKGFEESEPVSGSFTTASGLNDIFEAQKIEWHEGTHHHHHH

T2: GST huTnC fn5 A1234 BC fn6 B (human, UniProt P24821 984-1798, biotinylated at the C-terminal Avi-tag)
T2 construct: also called Human GST-fused TnC fn5 A1234 BC fn6
T2 sequence: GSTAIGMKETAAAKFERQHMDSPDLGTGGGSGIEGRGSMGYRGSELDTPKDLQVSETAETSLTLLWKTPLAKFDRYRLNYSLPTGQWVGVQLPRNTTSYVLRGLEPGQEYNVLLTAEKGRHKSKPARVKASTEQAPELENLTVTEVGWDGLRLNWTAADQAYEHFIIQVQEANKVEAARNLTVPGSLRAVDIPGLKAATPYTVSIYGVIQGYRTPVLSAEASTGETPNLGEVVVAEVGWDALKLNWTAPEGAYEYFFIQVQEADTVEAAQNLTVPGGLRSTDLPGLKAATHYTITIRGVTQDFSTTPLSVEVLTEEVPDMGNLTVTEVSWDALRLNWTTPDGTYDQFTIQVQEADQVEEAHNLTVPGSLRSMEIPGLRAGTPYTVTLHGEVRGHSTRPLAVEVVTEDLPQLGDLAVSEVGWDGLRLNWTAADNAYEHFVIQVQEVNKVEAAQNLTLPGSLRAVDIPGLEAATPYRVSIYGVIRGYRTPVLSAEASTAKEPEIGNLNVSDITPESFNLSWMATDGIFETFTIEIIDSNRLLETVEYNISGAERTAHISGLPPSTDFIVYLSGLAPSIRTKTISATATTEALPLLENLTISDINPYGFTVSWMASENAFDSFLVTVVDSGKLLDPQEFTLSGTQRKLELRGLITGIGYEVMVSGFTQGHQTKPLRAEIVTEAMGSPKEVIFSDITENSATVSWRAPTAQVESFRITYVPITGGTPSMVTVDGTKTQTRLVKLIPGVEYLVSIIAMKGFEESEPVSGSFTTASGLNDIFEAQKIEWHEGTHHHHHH

T3: GST huTnC fn5 mu A124 BC hu fn6 B (human fn5 and fn6, murine A124 BC)
T3 chain: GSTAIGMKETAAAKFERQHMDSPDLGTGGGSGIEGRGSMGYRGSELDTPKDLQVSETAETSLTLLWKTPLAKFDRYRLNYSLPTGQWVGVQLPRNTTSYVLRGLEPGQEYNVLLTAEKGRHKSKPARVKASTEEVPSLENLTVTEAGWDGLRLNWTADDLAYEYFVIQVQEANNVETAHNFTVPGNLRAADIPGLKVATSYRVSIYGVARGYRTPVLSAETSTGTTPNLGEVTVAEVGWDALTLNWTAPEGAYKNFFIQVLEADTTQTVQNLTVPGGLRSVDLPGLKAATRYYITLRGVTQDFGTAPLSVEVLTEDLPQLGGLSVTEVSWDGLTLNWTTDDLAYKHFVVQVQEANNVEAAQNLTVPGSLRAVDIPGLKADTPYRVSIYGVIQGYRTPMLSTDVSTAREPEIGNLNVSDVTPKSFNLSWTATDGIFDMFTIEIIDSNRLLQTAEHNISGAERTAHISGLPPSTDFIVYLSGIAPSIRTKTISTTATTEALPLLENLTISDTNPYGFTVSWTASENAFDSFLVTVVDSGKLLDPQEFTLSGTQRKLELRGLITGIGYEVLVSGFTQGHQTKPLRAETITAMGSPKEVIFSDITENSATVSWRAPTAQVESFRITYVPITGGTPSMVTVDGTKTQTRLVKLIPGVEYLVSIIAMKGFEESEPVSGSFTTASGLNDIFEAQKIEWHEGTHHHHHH

T4: human OX40 on cells (human, UniProt P43489 29-277)
T4 construct: also called CD134; OX40+ Cells
T4 sequence: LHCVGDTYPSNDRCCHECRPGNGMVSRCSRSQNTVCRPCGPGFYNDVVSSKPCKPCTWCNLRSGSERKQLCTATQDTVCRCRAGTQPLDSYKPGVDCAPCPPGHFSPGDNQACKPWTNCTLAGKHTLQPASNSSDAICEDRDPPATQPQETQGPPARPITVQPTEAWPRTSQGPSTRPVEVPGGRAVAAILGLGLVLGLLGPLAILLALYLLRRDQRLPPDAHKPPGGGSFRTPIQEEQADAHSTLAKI

T5: GST huTnC fn5 A1234 fn6 B (human, biotinylated at the C-terminal Avi-tag)
T5 chain: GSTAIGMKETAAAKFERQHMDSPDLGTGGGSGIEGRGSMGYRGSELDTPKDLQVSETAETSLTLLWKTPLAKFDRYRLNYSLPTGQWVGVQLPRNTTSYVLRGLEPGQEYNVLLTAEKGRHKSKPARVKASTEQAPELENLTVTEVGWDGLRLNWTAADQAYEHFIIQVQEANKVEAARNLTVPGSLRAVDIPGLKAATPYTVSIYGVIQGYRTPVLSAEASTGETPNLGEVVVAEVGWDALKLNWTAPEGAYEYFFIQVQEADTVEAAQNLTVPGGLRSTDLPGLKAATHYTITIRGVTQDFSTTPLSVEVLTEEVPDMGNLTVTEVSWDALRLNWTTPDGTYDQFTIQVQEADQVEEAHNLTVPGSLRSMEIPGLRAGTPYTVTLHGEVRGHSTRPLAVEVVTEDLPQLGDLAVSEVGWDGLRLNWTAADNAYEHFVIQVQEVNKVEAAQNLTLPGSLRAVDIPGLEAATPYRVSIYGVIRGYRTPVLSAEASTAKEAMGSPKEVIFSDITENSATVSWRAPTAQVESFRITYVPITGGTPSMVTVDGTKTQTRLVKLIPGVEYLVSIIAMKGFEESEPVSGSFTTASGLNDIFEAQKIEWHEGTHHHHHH

T6: huTnC A4 B (human, biotinylated at the C-terminal Avi-tag)
T6 chain: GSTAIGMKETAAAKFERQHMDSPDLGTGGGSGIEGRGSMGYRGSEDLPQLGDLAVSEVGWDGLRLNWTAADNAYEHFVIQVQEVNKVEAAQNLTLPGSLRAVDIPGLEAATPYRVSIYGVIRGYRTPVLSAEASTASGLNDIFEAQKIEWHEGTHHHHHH

T7: huTnC A1 B (human, biotinylated at the C-terminal Avi-tag)
T7 chain: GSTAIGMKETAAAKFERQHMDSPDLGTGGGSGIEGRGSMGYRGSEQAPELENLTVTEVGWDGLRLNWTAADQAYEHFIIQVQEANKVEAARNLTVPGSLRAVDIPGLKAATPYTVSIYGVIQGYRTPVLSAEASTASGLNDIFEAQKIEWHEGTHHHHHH

B1: anti-TnC clone 11C7, purified Fab (Fab, V domains shown)
VH: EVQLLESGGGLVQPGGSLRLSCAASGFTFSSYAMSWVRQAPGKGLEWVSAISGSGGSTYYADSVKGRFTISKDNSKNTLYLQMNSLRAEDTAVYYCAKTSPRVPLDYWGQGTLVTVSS
VL: SSELTQDPAVSVALGQTVRVTCQGDSLRSYYASWYQQKPGQAPVLVIYGKNNRPSGIPDRFSGSSSGNTASLTITGAQAEDEADYYCNSINSTRNEVFGGGTKLTVL
B2: parental bivalent anti-TnC antibody clone18D4 (antibody, V domains shown)
VH: QVQLVQSGAEVKKPGSSVKVSCKASGGTFSSYAISWVRQAPGQGLEWMGGIIPIFGTANYAQKFQGRVTITADKSTSTAYMELSSLRSEDTAVYYCAKGNFYGGLDYWGQGTTVTVSS
VL: DIQMTQSPSTLSASVGDRVTITCRASQSISSWLAWYQQKPGKAPKLLIYDASSLESGVPSRFSGSGSGTEFTLTISSLQPDDFATYYCQQNKKFPSGTFGQGTKVEIK
notes: Human IgG1; also called αTnC (18D4); anti-TnC 18D4 IgG
B3: anti-TnC clone 18D4, purified Fab (Fab, V domains shown)
VH: B2 VH
VL: B2 VL

Columns and labels:
GST TnC hu fn5 B-C fn6 B = target: T1, GST TnC hu fn5 B-C fn6 B; assay: SPR ProteOn XPR36, biotinylated antigen captured on NLC chip, purified Fab as analyte, 1:1 Langmuir
Method: (§1) Immobilization of antigens (ligand): Recombinant antigens were diluted with PBST (10 mM phosphate, 150 mM sodium chloride pH 7.4, 0.005% Tween 20) to 10 μg/ml, then injected at 30 μl/minute in vertical orientation. Injection of analytes: For ‘one-shot kinetics’ measurements, injection direction was changed to horizontal orientation, two-fold dilution series of purified Fab were injected simultaneously along separate channels 1-5, with association times of 200 s, and dissociation times of 240 s, respectively. Buffer (PBST) was injected along the sixth channel to provide an “in-line” blank for referencing. Association rate constants (kₒₙ) and dissociation rate constants (koff) were calculated using a simple one-to-one Langmuir binding model in ProteOn Manager v3.1 software by simultaneously fitting the association and dissociation sensorgrams. The equilibrium dissociation constant (KD) was calculated as the ratio koff/kₒₙ.

[1] = target: T2, GST huTnC fn5 A1234 BC fn6 B; assay: as above
Method: as §1

[2] = target: T3, GST huTnC fn5 mu A124 BC hu fn6 B; assay: as above
Method: as §1

human TnC on cells [3] = target: T8, human TnC on cells (human, UniProt P24821 23-2201); assay: flow cytometry on U87-MG cells
T8 construct: Endogenous on U87-MG cells (low or intermediate level) and stably transfected in CT26 cells (CT26huTnC, high level); also called cell surface human TnC; TnC on U87-MG cells
Method: Cells were then stained for 60 to 120 minutes at 4° C. in the dark in 50 4/well 4° C.
For discrimination of live and dead cells two methods were used. […] Alternatively, cells were washed once with DPBS and were incubated for 15 minutes at dark/4° C. at a cell concentration of 1×10⁶ cell/mL in DPBS containing Zombie Aqua™ Viability Dye [1:800 dilution]. Cells were subsequently washed once with DPBS to remove excess dye before primary antigen binding molecules were added to the cells and the cells were incubated as described above.

human TnC on cells [4] = target: T8, human TnC on cells; assay: flow cytometry on CT26huTnC cells
human OX40 on cells = target: T4, human OX40 on cells; assay: flow cytometry on activated human PBMC, gated on CD4+ T cells; FITC anti-human IgG secondary; MFI baseline corrected
Method: For labeling, cells were harvested, washed with pre-warmed (37° C.) DPBS and adjusted to a cell density of 1×10⁷ cells/mL in DPBS. eFluor670 cell proliferation dye (eBioscience, Cat.-No. 65-0840-85) was added to the suspension of naïve human PBMC at a final concentration of […] and a final cell density of 0.5×10⁷ cells/mL in DPBS. Cells were then incubated for 10 min at room temperature in the dark. To stop the labeling reaction, 4 mL heat inactivated FBS was added and cells were washed three times with T cell medium. A 2:1 mixture of 1×10⁵ resting eFluor670 labeled human PBMC and 0.5×10⁵ unlabeled activated human PBMC were then added to each well of round-bottomed suspension cell 96-well plates (Greiner bio-one, cellstar, Cat. No. 650185).
Cells were stained for 120 minutes at 4° C. in the dark in 50 μL/well 4° C. FACS buffer containing different amounts of the indicated antigen binding molecules. After three washes with 4° C. FACS buffer, cells were stained for 45 minutes at 4° C. in the dark in 25 μL/well 4° C. FACS buffer containing a mixture of fluorescently labeled anti-human CD4 (clone RPA-T4, mouse IgG1 k, BioLegend, Cat.-No. 300532), anti-human CD8 (clone RPa-T8, mouse IgGlk, BioLegend, Cat.-No. 3010441) and Fluorescein isothiocyanate (FITC)-conjugated AffiniPure anti-human IgG Fcγ-fragment-specific goat IgG F(ab′)₂ fragment (Jackson ImmunoResearch, Cat.-No. 109-096-098). […]

[5] = target: T5, GST huTnC fn5 A1234 fn6 B; assay: SPR ProteOn XPR36, biotinylated antigen captured on NLC chip, purified Fab as analyte, 1:1 Langmuir
Method: as §1

huTnC A4 B = target: T6, huTnC A4 B; assay: as above
Method: as §1

huTnC A1 B = target: T7, huTnC A1 B; assay: as above
Method: as §1

T8 sequence (P24821 23-2201 limits assumed): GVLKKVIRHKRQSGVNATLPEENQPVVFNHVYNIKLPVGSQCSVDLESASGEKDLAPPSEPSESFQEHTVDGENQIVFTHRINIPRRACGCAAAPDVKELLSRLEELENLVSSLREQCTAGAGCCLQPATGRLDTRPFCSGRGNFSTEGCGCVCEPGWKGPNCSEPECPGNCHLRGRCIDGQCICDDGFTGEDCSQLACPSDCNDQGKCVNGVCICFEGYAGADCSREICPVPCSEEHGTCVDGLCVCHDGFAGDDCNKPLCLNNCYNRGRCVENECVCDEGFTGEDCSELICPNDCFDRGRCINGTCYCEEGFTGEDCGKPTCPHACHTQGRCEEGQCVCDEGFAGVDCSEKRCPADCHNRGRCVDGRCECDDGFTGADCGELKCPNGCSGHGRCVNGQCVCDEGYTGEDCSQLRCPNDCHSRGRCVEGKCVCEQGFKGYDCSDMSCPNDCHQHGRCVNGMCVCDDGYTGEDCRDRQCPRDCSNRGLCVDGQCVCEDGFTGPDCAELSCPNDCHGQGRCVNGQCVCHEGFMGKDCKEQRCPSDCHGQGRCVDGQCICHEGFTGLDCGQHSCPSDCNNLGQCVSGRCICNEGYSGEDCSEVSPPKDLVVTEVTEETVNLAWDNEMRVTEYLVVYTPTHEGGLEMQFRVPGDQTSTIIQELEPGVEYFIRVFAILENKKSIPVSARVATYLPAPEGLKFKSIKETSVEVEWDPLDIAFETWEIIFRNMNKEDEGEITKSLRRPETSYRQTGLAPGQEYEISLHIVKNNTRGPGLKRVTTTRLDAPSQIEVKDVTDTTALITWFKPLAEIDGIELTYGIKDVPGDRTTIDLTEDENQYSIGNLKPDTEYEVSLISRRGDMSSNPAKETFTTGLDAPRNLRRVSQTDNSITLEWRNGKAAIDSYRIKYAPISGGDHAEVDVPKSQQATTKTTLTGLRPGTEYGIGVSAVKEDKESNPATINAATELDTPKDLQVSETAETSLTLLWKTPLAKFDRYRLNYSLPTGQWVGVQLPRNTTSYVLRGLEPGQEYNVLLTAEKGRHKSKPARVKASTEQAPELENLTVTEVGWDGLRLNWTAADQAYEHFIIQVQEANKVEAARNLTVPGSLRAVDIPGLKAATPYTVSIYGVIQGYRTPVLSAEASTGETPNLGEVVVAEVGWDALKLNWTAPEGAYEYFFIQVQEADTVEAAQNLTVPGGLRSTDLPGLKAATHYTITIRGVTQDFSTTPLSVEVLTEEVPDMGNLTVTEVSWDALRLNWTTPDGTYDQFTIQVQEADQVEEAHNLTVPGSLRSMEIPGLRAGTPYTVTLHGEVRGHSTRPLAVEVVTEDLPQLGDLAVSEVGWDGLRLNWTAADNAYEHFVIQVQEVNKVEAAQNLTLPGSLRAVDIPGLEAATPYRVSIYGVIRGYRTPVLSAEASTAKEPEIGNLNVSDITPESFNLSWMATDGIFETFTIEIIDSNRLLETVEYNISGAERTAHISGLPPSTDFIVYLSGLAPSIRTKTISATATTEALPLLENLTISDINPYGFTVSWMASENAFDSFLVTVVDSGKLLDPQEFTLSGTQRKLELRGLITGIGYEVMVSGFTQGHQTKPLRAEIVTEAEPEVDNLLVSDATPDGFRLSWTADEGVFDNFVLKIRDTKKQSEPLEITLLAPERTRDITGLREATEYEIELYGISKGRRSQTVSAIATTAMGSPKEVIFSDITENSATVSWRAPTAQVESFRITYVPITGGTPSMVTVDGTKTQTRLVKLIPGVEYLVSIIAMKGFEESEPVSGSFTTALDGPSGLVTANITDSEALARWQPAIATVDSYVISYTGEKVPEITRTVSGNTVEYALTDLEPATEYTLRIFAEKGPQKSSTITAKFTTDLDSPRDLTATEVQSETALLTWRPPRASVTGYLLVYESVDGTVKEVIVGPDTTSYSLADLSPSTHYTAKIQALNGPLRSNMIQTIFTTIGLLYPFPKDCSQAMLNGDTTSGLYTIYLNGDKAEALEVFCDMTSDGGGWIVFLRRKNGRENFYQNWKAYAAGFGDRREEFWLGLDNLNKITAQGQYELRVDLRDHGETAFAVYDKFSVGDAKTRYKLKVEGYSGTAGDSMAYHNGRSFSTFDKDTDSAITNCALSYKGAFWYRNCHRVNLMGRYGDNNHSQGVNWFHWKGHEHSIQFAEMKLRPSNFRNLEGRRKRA

Binder | Kd (GST TnC hu fn5 B-C fn6 B) [nM] | Kd [1] [nM] | Kd [2] [nM] | EC50 (human TnC on cells [3]) [nM] | EC50 (human TnC on cells [4]) [nM] | binding result (human OX40 on cells) | Kd [5] [nM] | Kd (huTnC A4 B) [nM] | Kd (huTnC A1 B) [nM]
B1 | 1 | 2.3 | 1.9 |  |  |  |  |  | 
B2 |  |  |  | 8.21 | 2.69 | no binding (tested: 100 nM) |  |  | 
B3 |  | 4 | 11.2 |  |  |  | 5 | 2 | 5.6
